The values that follow come from article PMC11179954 (MedComm, 2024).

Assay [1] has as its target T1, wild-type human Y1R (NPY1R-WT, hY1R) (Homo sapiens, UniProt P25929).
T1 construct: Flag; expressed in transfected cells; host or cells: HEK293
T1 sequence (P25929 1-384): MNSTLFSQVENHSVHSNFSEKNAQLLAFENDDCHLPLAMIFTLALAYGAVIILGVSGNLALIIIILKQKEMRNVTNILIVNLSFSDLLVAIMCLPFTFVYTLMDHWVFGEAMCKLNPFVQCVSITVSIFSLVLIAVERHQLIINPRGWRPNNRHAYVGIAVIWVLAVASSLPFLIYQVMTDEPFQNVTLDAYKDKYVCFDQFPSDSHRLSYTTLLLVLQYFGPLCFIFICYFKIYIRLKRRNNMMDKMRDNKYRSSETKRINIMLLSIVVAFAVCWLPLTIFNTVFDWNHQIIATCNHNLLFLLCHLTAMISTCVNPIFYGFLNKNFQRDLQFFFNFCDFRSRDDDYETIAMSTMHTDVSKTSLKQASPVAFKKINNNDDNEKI
As to the kind of experiment: GloSensor cAMP inhibition assay in HEK293 cells. As to conditions: wildtype Y1R, Figure 1B. It is filed as cell-based.
Protocol: Following a subsequent 1 -hour incubation, ligands, diluted in assay buffer with forskolin, were introduced to the cells. Subsequently, the cells wer e incubated for 30 minutes in a light-free environment at room temperature Fluorescence signals were measured using a Synergy H1 microplate reader (BioTek). GraphPad Prism 8 (GraphPad Software) was used to processing data using the nonlinear regression dos e-response function. Results were represented as the mean ± s.e.m. from three independent experiments . All experiments were repeated at least three times.

For the next assay, the target named is T2, wildtype Y2R (Homo sapiens, UniProt P49146).
T2 construct: Flag; expressed in transfected cells; host or cells: HEK293
T2 sequence (P49146 1-381): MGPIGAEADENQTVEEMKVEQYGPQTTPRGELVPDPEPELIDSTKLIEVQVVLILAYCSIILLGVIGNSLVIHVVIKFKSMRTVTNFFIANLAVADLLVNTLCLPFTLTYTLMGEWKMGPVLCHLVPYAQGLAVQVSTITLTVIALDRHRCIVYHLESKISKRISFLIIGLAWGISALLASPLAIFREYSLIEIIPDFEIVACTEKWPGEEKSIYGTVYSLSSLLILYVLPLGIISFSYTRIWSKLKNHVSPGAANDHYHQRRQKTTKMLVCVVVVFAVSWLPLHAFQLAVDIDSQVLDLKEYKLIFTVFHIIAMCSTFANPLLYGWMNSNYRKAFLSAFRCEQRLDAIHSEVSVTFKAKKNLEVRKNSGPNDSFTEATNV
As to the kind of experiment: GloSensor cAMP inhibition assay in HEK293 cells. Format: cell-based. Conditions: Figure 1C. How it is done: EM density map11, the coordinates were subsequently manual adjustment and rebuilding in COOT 12. Real space refinement was performed in Phenix program 13.
The model statistics were finally validated by using MolProbity 14 in Phenix. The refinement statistics are presented in supplemental information table S1. UCSF Chimera11, Chimera X 15 and PyMOL (https://pymol.org/2/) were used to generate the […]
Cyclic adenosine 3′,5′-monophosphate (cAMP) assay.
To measure the ligand-induced Gi signaling activation potency of wild -type NPYR or mutants, the GloSensor cAMP assay (Promega) was conducted following a previous study. Briefly, HEK293 cells were co -transfected with the GloSensor plasmid and various NPYR constructs or pcDNA3.1 (as a negative control) plasmids using Polyethylenimine Linear (PEI, YEASEN) in 6 -well plates. Following a 4-hour incubation period, the cells were transferred to fresh medium. After 24 hours, they were harvested and suspended in assay buffer ( HBSS with 10 mM HEPES, pH 7.4), supplemented with a 3% v/v dilution of D -Luciferin-Potassium Salt (YEASEN).
Following a subsequent 1 -hour incubation, ligands, diluted in assay buffer with forskolin, were introduced to the cells. Subsequently, the cells wer e incubated for 30 minutes in a light-free environment at room temperature […] signals were measured using a Synergy H1 microplate reader (BioTek). […]

For the substance NPY^13−36: N-terminally truncated NPY, the “reduced Y1R activation compared to NPY” value in assay [1] is listed as above 50 folds.

As for “NPY^3−36: N-terminal truncated NPY variant, processed by dipeptidyl peptidase IV”, the “reduced Y1R activation compared to NPY” value in assay [1] was above 50 folds. For the same substance, the “Y2R activation compared with NPY (in words)” value in the assay with wildtype Y2R was “slightly reduced Y2R activation”.
